Like-named read-outs stand apart in the source and are kept apart here.
How the values were obtained:
[1] = target: C-terminal domain (CTD) of HIV-1 capsid (CA), wild type (HIV-1 (strain NL4-3)); assay: ITC; dilution of CTD (ca. 250 uM) into buffer with 350 uM NYAD-203; 25 mM sodium phosphate pH 7.3, 30 C; apparent; dimer to monomers
[2] = target: C-terminal domain (CTD) of HIV-1 capsid (CA), wild type (HIV-1 (strain NL4-3)); assay: ITC; dilution of CTD (ca. 250 uM in the syringe, 10 ul injections) into buffer without peptide; 25 mM sodium phosphate pH 7.3, 30 C; dimer to monomers
[3] = target: C-terminal domain (CTD) of HIV-1 capsid (CA), wild type (HIV-1 (strain NL4-3)); assay: ITC; dilution of CTD (ca. 250 uM) into buffer with 200 uM NYAD-203; 25 mM sodium phosphate pH 7.3, 30 C; apparent; dimer to monomers
[4] = target: C-terminal domain (CTD) of HIV-1 capsid (CA), wild type (HIV-1 (strain NL4-3)); assay: ITC; dilution of CTD (ca. 250 uM) into buffer with 50 uM NYAD-203; 25 mM sodium phosphate pH 7.3, 30 C; apparent; dimer to monomers
[5] = target: HIV-1 capsid CTD CTD (Human immunodeficiency virus 1) (UniProt O93182); conditions: cited from earlier work
Chain of HIV-1 capsid CTD CTD (Human immunodeficiency virus 1) (O93182 278-363): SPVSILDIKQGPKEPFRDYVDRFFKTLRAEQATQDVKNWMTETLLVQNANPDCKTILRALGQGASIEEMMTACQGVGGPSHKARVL

[6] = target: C-terminal domain (CTD) of HIV-1 capsid (CA), wild type (HIV-1 (strain NL4-3)); assay: ITC; Ki worked out from the rise of the apparent dimer dissociation constant of CTD with the NYAD-203 concentration, extrapolated to low (zero) peptide concentration; pH 7.3, 30 C
[7] = target: C-terminal domain (CTD) of HIV-1 capsid (CA), wild type (HIV-1 (strain NL4-3)); assay: as above; remark: listed apart in the source
[8] = target: C-terminal domain (CTD) of HIV-1 capsid (CA), wild type (HIV-1 (strain NL4-3)); assay: NMR titration
[9] = target: HIV-1 capsid CA (Human immunodeficiency virus 1) (UniProt O93182); conditions: cited from earlier work

Chain of HIV-1 capsid CA (O93182 133-363): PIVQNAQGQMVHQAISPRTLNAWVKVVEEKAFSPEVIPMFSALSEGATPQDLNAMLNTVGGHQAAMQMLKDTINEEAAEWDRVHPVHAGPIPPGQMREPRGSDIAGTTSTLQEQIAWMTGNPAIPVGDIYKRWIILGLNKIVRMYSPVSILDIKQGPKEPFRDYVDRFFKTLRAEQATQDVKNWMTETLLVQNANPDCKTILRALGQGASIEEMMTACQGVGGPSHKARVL
Chain of CAC1 peptide (O93182 307-326): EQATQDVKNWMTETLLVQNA

C-terminal domain (CTD) of HIV-1 capsid (CA), wild type (domain or fragment)
apparent K diss with 350 uM NYAD-203 [1]: 40.5 µM
apparent dH of dimer dissociation with 350 uM NYAD-203 [1]: 10.9 kcal/mol
Kd [2]: 15.3 µM
dH of dimer dissociation [2]: 10.7 kcal/mol
apparent K diss with 200 uM NYAD-203 [3]: 33.2 µM
apparent dH of dimer dissociation with 200 uM NYAD-203 [3]: 10.8 kcal/mol
apparent K diss with 50 uM NYAD-203 [4]: 31.2 µM
apparent dH of dimer dissociation with 50 uM NYAD-203 [4]: 9.1 kcal/mol

CAC1 peptide (from UniProt O93182)
Kd [5]: 50 µM

NYAD-203, hydrocarbon-stapled dimer interface peptide, soluble analog of NYAD-201
Ki [6]: 45 µM
Ki [7]: 40 µM
Kd [8]: < 10 µM

HIV-1 capsid CA (from UniProt O93182)
Kd [9]: 18 µM
